# Results reported in paper doi:10.1101/2021.04.23.441157.
# How the values were obtained:
# Test in all cases: TIRF microscopy of filaments on supported lipid bilayers
# [1] = biological target: Cdc11a-Cdc11bCTE-capped septin octamer (Ashbya gossypii | S. cerevisiae) (UniProt P32468)
# [2] = biological target: Cdc11b-capped septin hetero-octamer (recombinant Ashbya gossypii septin complex) (Ashbya gossypii | S. cerevisiae) (UniProt P32468)
# [3] = biological target: Cdc11b-Cdc11aCTE-capped septin octamer (Ashbya gossypii | S. cerevisiae) (UniProt P32468)
# [4] = biological target: Cdc11a-capped septin hetero-octamer (recombinant Ashbya gossypii septin complex) (Ashbya gossypii | S. cerevisiae) (UniProt P32468)
substance,measurement,setting,value
Cdc11a-Cdc11bCTE-capped septin octamer (from UniProt P32468 1-407) (complex),average filament length at steady state,[1],0.94 µm
same,"average filament length at steady state, in octamers",[1],29 octamers
Cdc11b-capped septin hetero-octamer (recombinant Ashbya gossypii septin complex) (from UniProt P32468 1-407),average filament length at steady state,[2],0.52 µm
same,"average filament length at steady state, in octamers",[2],16 octamers
Cdc11b-Cdc11aCTE-capped septin octamer (from UniProt P32468 1-407) (complex),average filament length at steady state,[3],0.55 µm
same,"average filament length at steady state, in octamers",[3],17 octamers
Cdc11a-capped septin hetero-octamer (recombinant Ashbya gossypii septin complex) (from UniProt P32468 1-407),average filament length at steady state,[4],0.72 µm
same,"average filament length at steady state, in octamers",[4],23 octamers
